This experiment has as its target T1, CENP-H/His-CENP-K complex (human, UniProt Q9H3R5 1-247; Q9BS16 1-269).
T1 construct: human CENP-H, without any tag; human CENP-K; also called CENP-H/K complex; source: Tnao38 insect cells, co-expressed, purified; not shown: His6, N-terminal, kept
Nature of the experiment: SEC; analytical SEC co-elution (Superdex200 5/150 or Superose6 5/150), 4°C; proteins mixed in 50 µl, at least 2 hr on ice; SEC buffer with 150 mM NaCl. Conditions: both partners purified. In general terms: In gel filtration, larger molecules generally elute earlier.

T1 sequence (Q9H3R5 whole entry, chain 1 of 2): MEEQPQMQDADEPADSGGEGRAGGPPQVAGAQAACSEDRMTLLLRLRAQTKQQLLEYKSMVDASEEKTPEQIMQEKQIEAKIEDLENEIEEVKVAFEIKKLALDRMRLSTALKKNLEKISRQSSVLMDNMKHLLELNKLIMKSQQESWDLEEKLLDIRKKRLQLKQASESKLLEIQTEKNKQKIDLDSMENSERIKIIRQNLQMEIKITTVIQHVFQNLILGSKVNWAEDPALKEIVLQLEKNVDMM
T1 sequence (Q9BS16 whole entry, chain 2 of 2): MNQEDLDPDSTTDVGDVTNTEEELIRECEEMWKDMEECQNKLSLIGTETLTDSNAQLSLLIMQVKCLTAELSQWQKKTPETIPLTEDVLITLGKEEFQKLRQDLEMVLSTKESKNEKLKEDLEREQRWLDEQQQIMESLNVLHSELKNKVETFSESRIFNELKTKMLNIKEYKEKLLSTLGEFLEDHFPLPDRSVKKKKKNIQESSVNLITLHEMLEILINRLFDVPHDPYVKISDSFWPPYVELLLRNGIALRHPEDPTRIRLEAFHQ

B1: His-CENP-I^57–281 (domain or fragment, human, UniProt Q92674 57-281, looked up)
chain: ADDQAEEDALQMAVGYFEKGPIKASQNKDKTLEKHLKTVENVAWKNGLASEEIDILLNIALSGKFGNAVNTRILKCMIPATVISEDSVVKAVSWLCVGKCSGSTKVLFYRWLVAMFDFIDRKEQINLLYGFFFASLQDDALCPYVCHLLYLLTKKENVKPFRVRKLLDLQAKMGMQPHLQALLSLYKFFAPALISVSLPVRKKIYFKNSENLWKTALLAVKQRNR
notes: CENP-I residues 57-281; no methods paragraph tells how this fragment was made; also called N-terminal region of CENP-I; I^N; source: recombinant, expressed in a soluble form
Consider B1, for which the binding result is “binds”.
